According to PMC10017909, “Improving ethanol tolerance of ethyl carbamate hydrolase by diphasic high pressure molecular dynamic simulations” (AMB Express, 2023):

Substrate: CCOC(N)=O
Assay: purified protein
Type: biochemical, Lysinibacillus fusiformis
Conditions: free enzyme, EC 0-300 mM, activity assay at 37 °C, pH not stated

B1: EC hydrolase (ethyl carbamate hydrolase) (Lysinibacillus fusiformis; H68A/K70R/S325N) (protein)
chain: MTTDLHLKSVEELAPLLASKSLSPVELTKAILDFAEESQPKINSYMAFYREEALARAKEVEQEILQGAYRGMYHGIPMALKDNLYFKDKITTMSSKIHKDFVSDYDATVVEKLRDAGVIFTGKLSMHEYAWGITNNNPHYGPVRNPWDLDKIPGGSSGGSGAAVAAGASVASLGTDTAGSIRIPSSACGIVGLKPTHGRVSKYGCYPLAWSLDHIGPMTKTVKDAAGLLEVIAGFDHQDPTCVNVPVDNYEKQLTGNIKDLVIGINEEYFFNNVDADVEKAVRASIQSLVDSGAKVEVVRIPSLQYAEWAELVTSLSEAAAIHHNDLQKRPQDFGDDIRLLFELGELPSAVDYLQAQQVRRQIKQEFTEIFNKVDVLISPTLPIVASTIGDDFAELNGQKVDLIDNIIRFTGPSNLTGLPALSVPCGFKGNLPIGLQIIGPAFKEGRILNVGYAVEQANPQRNRKPNIFANI
  Km: 28.2 ± 4.41 mM

B2: EC hydrolase (ethyl carbamate hydrolase) (Lysinibacillus fusiformis; A178L) (protein)
chain: MTTDLHLKSVEELAPLLASKSLSPVELTKAILDFAEESQPKINSYMAFYREEALARAKEVEQEILQGHYKGMYHGIPMALKDNLYFKDKITTMSSKIHKDFVSDYDATVVEKLRDAGVIFTGKLSMHEYAWGITNNNPHYGPVRNPWDLDKIPGGSSGGSGAAVAAGASVASLGTDTLGSIRIPSSACGIVGLKPTHGRVSKYGCYPLAWSLDHIGPMTKTVKDAAGLLEVIAGFDHQDPTCVNVPVDNYEKQLTGNIKDLVIGINEEYFFNNVDADVEKAVRASIQSLVDSGAKVEVVRIPSLQYAEWAELVTSLSEAAAIHHSDLQKRPQDFGDDIRLLFELGELPSAVDYLQAQQVRRQIKQEFTEIFNKVDVLISPTLPIVASTIGDDFAELNGQKVDLIDNIIRFTGPSNLTGLPALSVPCGFKGNLPIGLQIIGPAFKEGRILNVGYAVEQANPQRNRKPNIFANI
  Km: 96.78 ± 6.09 mM

B3: EC hydrolase (ethyl carbamate hydrolase) (Lysinibacillus fusiformis; K70R) (protein)
chain: MTTDLHLKSVEELAPLLASKSLSPVELTKAILDFAEESQPKINSYMAFYREEALARAKEVEQEILQGHYRGMYHGIPMALKDNLYFKDKITTMSSKIHKDFVSDYDATVVEKLRDAGVIFTGKLSMHEYAWGITNNNPHYGPVRNPWDLDKIPGGSSGGSGAAVAAGASVASLGTDTAGSIRIPSSACGIVGLKPTHGRVSKYGCYPLAWSLDHIGPMTKTVKDAAGLLEVIAGFDHQDPTCVNVPVDNYEKQLTGNIKDLVIGINEEYFFNNVDADVEKAVRASIQSLVDSGAKVEVVRIPSLQYAEWAELVTSLSEAAAIHHSDLQKRPQDFGDDIRLLFELGELPSAVDYLQAQQVRRQIKQEFTEIFNKVDVLISPTLPIVASTIGDDFAELNGQKVDLIDNIIRFTGPSNLTGLPALSVPCGFKGNLPIGLQIIGPAFKEGRILNVGYAVEQANPQRNRKPNIFANI
  Km: 33.38 ± 5.67 mM

B4: EC hydrolase (ethyl carbamate hydrolase) (Lysinibacillus fusiformis; K70R/S325N) (protein)
chain: MTTDLHLKSVEELAPLLASKSLSPVELTKAILDFAEESQPKINSYMAFYREEALARAKEVEQEILQGHYRGMYHGIPMALKDNLYFKDKITTMSSKIHKDFVSDYDATVVEKLRDAGVIFTGKLSMHEYAWGITNNNPHYGPVRNPWDLDKIPGGSSGGSGAAVAAGASVASLGTDTAGSIRIPSSACGIVGLKPTHGRVSKYGCYPLAWSLDHIGPMTKTVKDAAGLLEVIAGFDHQDPTCVNVPVDNYEKQLTGNIKDLVIGINEEYFFNNVDADVEKAVRASIQSLVDSGAKVEVVRIPSLQYAEWAELVTSLSEAAAIHHNDLQKRPQDFGDDIRLLFELGELPSAVDYLQAQQVRRQIKQEFTEIFNKVDVLISPTLPIVASTIGDDFAELNGQKVDLIDNIIRFTGPSNLTGLPALSVPCGFKGNLPIGLQIIGPAFKEGRILNVGYAVEQANPQRNRKPNIFANI
  Km: 40.82 ± 3.56 mM

B5: EC hydrolase (ethyl carbamate hydrolase) (Lysinibacillus fusiformis; H68A/S325N) (protein)
chain: MTTDLHLKSVEELAPLLASKSLSPVELTKAILDFAEESQPKINSYMAFYREEALARAKEVEQEILQGAYKGMYHGIPMALKDNLYFKDKITTMSSKIHKDFVSDYDATVVEKLRDAGVIFTGKLSMHEYAWGITNNNPHYGPVRNPWDLDKIPGGSSGGSGAAVAAGASVASLGTDTAGSIRIPSSACGIVGLKPTHGRVSKYGCYPLAWSLDHIGPMTKTVKDAAGLLEVIAGFDHQDPTCVNVPVDNYEKQLTGNIKDLVIGINEEYFFNNVDADVEKAVRASIQSLVDSGAKVEVVRIPSLQYAEWAELVTSLSEAAAIHHNDLQKRPQDFGDDIRLLFELGELPSAVDYLQAQQVRRQIKQEFTEIFNKVDVLISPTLPIVASTIGDDFAELNGQKVDLIDNIIRFTGPSNLTGLPALSVPCGFKGNLPIGLQIIGPAFKEGRILNVGYAVEQANPQRNRKPNIFANI
  Km: 33.27 ± 2.31 mM

B6: EC hydrolase (ethyl carbamate hydrolase) (Lysinibacillus fusiformis; H68A) (protein)
chain: MTTDLHLKSVEELAPLLASKSLSPVELTKAILDFAEESQPKINSYMAFYREEALARAKEVEQEILQGAYKGMYHGIPMALKDNLYFKDKITTMSSKIHKDFVSDYDATVVEKLRDAGVIFTGKLSMHEYAWGITNNNPHYGPVRNPWDLDKIPGGSSGGSGAAVAAGASVASLGTDTAGSIRIPSSACGIVGLKPTHGRVSKYGCYPLAWSLDHIGPMTKTVKDAAGLLEVIAGFDHQDPTCVNVPVDNYEKQLTGNIKDLVIGINEEYFFNNVDADVEKAVRASIQSLVDSGAKVEVVRIPSLQYAEWAELVTSLSEAAAIHHSDLQKRPQDFGDDIRLLFELGELPSAVDYLQAQQVRRQIKQEFTEIFNKVDVLISPTLPIVASTIGDDFAELNGQKVDLIDNIIRFTGPSNLTGLPALSVPCGFKGNLPIGLQIIGPAFKEGRILNVGYAVEQANPQRNRKPNIFANI
  Km: 31.38 ± 5.61 mM

B7: EC hydrolase (ethyl carbamate hydrolase) (Lysinibacillus fusiformis) (protein)
chain: MTTDLHLKSVEELAPLLASKSLSPVELTKAILDFAEESQPKINSYMAFYREEALARAKEVEQEILQGHYKGMYHGIPMALKDNLYFKDKITTMSSKIHKDFVSDYDATVVEKLRDAGVIFTGKLSMHEYAWGITNNNPHYGPVRNPWDLDKIPGGSSGGSGAAVAAGASVASLGTDTAGSIRIPSSACGIVGLKPTHGRVSKYGCYPLAWSLDHIGPMTKTVKDAAGLLEVIAGFDHQDPTCVNVPVDNYEKQLTGNIKDLVIGINEEYFFNNVDADVEKAVRASIQSLVDSGAKVEVVRIPSLQYAEWAELVTSLSEAAAIHHSDLQKRPQDFGDDIRLLFELGELPSAVDYLQAQQVRRQIKQEFTEIFNKVDVLISPTLPIVASTIGDDFAELNGQKVDLIDNIIRFTGPSNLTGLPALSVPCGFKGNLPIGLQIIGPAFKEGRILNVGYAVEQANPQRNRKPNIFANI
  Km: 37.67 ± 3.55 mM

B8: EC hydrolase (ethyl carbamate hydrolase) (Lysinibacillus fusiformis; S325N) (protein)
chain: MTTDLHLKSVEELAPLLASKSLSPVELTKAILDFAEESQPKINSYMAFYREEALARAKEVEQEILQGHYKGMYHGIPMALKDNLYFKDKITTMSSKIHKDFVSDYDATVVEKLRDAGVIFTGKLSMHEYAWGITNNNPHYGPVRNPWDLDKIPGGSSGGSGAAVAAGASVASLGTDTAGSIRIPSSACGIVGLKPTHGRVSKYGCYPLAWSLDHIGPMTKTVKDAAGLLEVIAGFDHQDPTCVNVPVDNYEKQLTGNIKDLVIGINEEYFFNNVDADVEKAVRASIQSLVDSGAKVEVVRIPSLQYAEWAELVTSLSEAAAIHHNDLQKRPQDFGDDIRLLFELGELPSAVDYLQAQQVRRQIKQEFTEIFNKVDVLISPTLPIVASTIGDDFAELNGQKVDLIDNIIRFTGPSNLTGLPALSVPCGFKGNLPIGLQIIGPAFKEGRILNVGYAVEQANPQRNRKPNIFANI
  Km: 45.52 ± 9.41 mM
